In PMC10923007:

Assays:
[1] = target: ^GSTCAND1 from bacterial cells (UniProt Q86VP6); assay: pull-down
[2] = target: ^GSTCAND1 from insect cells (UniProt Q86VP6); assay: pull-down
[3] = target: CUL2^AMCA•RBX1 preassembled with VBC (UniProt Q13617); assay: FRET or BRET

Chain of RBX1•^StrepIICUL2^FL (Q13617 whole entry): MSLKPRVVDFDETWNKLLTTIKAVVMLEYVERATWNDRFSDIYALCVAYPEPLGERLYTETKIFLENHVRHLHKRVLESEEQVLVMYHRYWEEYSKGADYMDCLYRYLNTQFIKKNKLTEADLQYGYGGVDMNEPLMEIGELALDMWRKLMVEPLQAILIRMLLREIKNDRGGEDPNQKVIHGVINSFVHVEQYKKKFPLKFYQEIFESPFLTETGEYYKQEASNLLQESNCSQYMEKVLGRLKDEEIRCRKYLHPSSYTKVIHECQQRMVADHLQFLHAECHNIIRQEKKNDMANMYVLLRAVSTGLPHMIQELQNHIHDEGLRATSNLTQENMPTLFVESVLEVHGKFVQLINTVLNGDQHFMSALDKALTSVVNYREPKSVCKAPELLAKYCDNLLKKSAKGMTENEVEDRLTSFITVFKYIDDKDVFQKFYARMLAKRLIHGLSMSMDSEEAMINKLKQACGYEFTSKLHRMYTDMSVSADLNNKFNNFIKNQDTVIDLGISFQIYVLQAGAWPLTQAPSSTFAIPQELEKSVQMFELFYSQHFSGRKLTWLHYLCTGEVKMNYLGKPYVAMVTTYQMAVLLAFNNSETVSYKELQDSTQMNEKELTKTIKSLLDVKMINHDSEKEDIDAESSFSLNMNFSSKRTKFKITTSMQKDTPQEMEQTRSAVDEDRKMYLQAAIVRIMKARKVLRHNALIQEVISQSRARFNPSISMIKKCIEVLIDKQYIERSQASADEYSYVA
Chain of RBX1•^StrepIICUL2^FL (P62877 whole entry): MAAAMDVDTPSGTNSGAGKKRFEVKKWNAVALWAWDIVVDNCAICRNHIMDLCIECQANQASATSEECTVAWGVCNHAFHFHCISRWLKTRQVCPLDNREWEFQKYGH
Chain of ^GSTCAND1 from insect cells (Q86VP6 whole entry): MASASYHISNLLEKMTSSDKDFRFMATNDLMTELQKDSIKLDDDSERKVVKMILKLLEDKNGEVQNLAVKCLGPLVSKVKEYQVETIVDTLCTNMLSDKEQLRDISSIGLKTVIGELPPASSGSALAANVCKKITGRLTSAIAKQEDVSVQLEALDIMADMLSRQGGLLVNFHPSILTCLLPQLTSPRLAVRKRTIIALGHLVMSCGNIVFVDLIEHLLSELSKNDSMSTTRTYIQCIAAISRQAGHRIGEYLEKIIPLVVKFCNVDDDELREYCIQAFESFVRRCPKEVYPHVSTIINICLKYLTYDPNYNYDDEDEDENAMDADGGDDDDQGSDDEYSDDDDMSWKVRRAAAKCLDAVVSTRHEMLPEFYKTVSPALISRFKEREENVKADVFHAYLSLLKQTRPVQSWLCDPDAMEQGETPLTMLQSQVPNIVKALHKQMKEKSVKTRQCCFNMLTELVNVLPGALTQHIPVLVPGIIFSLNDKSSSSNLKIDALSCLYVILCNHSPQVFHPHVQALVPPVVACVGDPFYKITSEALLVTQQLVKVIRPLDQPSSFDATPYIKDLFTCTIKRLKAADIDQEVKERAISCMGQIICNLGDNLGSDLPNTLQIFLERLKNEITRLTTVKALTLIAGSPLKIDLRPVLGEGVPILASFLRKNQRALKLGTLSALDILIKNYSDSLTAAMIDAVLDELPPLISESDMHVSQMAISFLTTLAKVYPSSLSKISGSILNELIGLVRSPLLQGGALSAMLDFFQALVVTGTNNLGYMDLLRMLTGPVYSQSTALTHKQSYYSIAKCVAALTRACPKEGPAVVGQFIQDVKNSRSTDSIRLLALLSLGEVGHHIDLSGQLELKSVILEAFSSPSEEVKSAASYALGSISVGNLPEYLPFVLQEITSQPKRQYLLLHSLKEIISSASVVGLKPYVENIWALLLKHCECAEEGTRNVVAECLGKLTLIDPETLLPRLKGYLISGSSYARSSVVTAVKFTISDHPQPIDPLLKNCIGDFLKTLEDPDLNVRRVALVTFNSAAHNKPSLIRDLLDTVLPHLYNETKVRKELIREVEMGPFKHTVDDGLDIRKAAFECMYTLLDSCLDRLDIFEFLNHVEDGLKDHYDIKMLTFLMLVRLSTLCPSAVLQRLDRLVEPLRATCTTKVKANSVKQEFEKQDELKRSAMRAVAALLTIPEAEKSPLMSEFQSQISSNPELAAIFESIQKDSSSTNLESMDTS
Chain of ^GSTCAND1 from bacterial cells (Q86VP6 whole entry): as above
Chain of ^FlAsHCAND1 from insect cells (Q86VP6 whole entry): as above

Question: Which results are given for “RBX1•^StrepIICUL2^FL (from UniProt Q13617 1-745; P62877 1-108) (complex)”?
Answer: t1/2 of dissociation [1]: 3.5 min; t1/2 of dissociation [2]: 16 min

Question: With “^FlAsHCAND1 from insect cells (from UniProt Q86VP6 1-1230) (natural protein)” as the substance, how does the kon [3] read?
Answer: Its kon is 9.8e+07 M⁻¹ s⁻¹.
